Data set [1] concerns the target T1, Japanese eel (Anguilla japonica) UnaG, wild type, SEQ ID NO: 1 (Anguilla japonica, UniProt P0DM59).
T1 construct: GST (N, cleaved yes); made in house; host or cells: Escherichia coli BL21 (DE3)
The data set is described as follows: Fluorescence of apo UnaG reconstructed with bilirubin or bilirubin analogs (ligand specificity). Particulars: apo UnaG 0.5 μM; ligand 0.125-2.0 μM; room temperature 30 min; excitation 497 nm, fluorescence 527 nm. It is filed as biochemical. How it is done:
FIG. 5 is a graph showing specificity of UnaG protein in Example of the present invention to unconjugated bilirubin. Apo UnaG (0.5 μM) was mixed with a ligand: bilirubin (unconjugated) at various concentrations or a bilirubin analog, biliverdin, urobilin, or ditaurobilirubin, at various concentrations, and the fluorescence intensity at each concentration was measured. The vertical axis indicates fluorescence intensity, and the horizontal axis indicates concentration (μM) of each ligand.
Bilirubin or a bilirubin analog, biliverdin (Toronto Research Chemicals), urobilin (MP Biomedicals), or ditaurobilirubin (Frontier Scientific), was diluted with PBS such that the final concentration was 0.125 μM, 0.25 μM, 0.5 μM, 1.0 μM, or 2.0 μM and was mixed with 0.5 μM apo UnaG protein. The mixture was left to stand at room temperature for 30 min. Subsequently, 200 μL of the mixture was added to each well of a 96 well microplate (Greiner Bio-One) and was subjected to measurement of the fluorescence intensity at a wavelength of 527 nm with excitation light having a wavelength of 497 nm using EnSpire multi-mode plate reader (PerkinElmer Co., Ltd.).

In data set [2] the target is T1, Japanese eel (Anguilla japonica) UnaG, wild type, SEQ ID NO: 1. Put plainly: Dissociation constant by bilirubin titration of apo UnaG (fluorescence at 527 nm, curve fitting). It is filed as binding. Conditions: wild-type apo UnaG 5 nM, titrated with bilirubin to 10 nM. The text has this:
The capacity of binding to bilirubin can be evaluated through calculation of dissociation constant (Kd) by curve-fitting of correlation between the amount of bilirubin and the fluorescence intensity of UnaG protein. In one instance, “reduced capacity of binding to bilirubin compared to UnaG” means that the dissociation constant, Kd, is larger than that of UnaG.
The dissociation constant can be calculated by a known method, for example, by the following computation expression: Y=[Kd+Bt+Pt−{(Kd+Bt+Pt}^1/2]/(2×Pt) where Y represents the degree of binding of bilirubin (fluorescence intensity); Kd represents the dissociation constant; Bt represents the concentration of bilirubin; and Pt represents the concentration (5 nM) of apo UnaG protein.
(§1) An apo UnaG protein solution having an apo UnaG protein concentration of 5 nM was titrated with bilirubin to give a final concentration of bilirubin of 10 nM, and the fluorescence spectrum was measured with a fluorescence spectrophotometer.
Apo A12ES80N mutant protein was titrated with bilirubin, and the fluorescence intensity was measured with a spectrophotofluorometer F-2500 (Hitachi High-Technologies Corporation). The results were plotted. Data analysis and fitting with graph plotting software Origin (OriginLab Corporation) were performed to determine the dissociation constant (Kd). […]

Data set [3] concerns the target T2, Japanese eel (Anguilla japonica) UnaG variant A12ES80N (A12E, S80N), SEQ ID NO: 29 (Anguilla japonica, UniProt P0DM59, A12E/S80N).
T2 construct: made in house; host or cells: Escherichia coli JM109 (DE3)
The data set is described as follows: Dissociation constant by bilirubin titration of apo A12ES80N mutant (fluorescence, curve fitting). It is filed as binding. How it is done: as §1
A DNA fragment of A12ES80N mutant was ligated into BamHI and EcoRI restriction enzyme sites of pRSETB-FLAG vector, which was Escherichia coli expression vector pcRSETB including a FLAG tag sequence (SEQ ID NO: 26) at the KpnI/BamHI restriction enzyme sites, and was transformed into Escherichia coli strain JM109 (DE3) for subcloning. […]
The bacterial cells were suspended in 5 mL of PBS, and 50 μL of lysozyme (4 mg/mL) was added thereto. […] Subsequently, His-FLAG-UnaG mutant protein was eluted by adding each 500 μL of PBS containing 300 mM imidazole to the carrier, and the elution fraction was detected by a bradford method. […] The concentration of the purified His-FLAG-UnaG mutant protein was determined by the following computation expression based on the absorbance A280. […]
Apo A12ES80N mutant protein was titrated with bilirubin, and the fluorescence intensity was measured with a spectrophotofluorometer F-2500 (Hitachi High-Technologies Corporation). […]

A short description of data set [4]: Evaluation of aggregability of protein by dynamic light scattering particle diameter. It is filed as physicochemical. Here is the method: Protein solutions (each 20 μL) of wild-type UnaG protein (10 mg/mL) and R82EK84E mutated UnaG protein (8.5 mg/mL) were each supplied to Microtrac particle size analyzer MT3000II (Nikkiso Co., Ltd.), and the particle diameters were measured by a dynamic light scattering. The aggregability was evaluated by plotting frequency against particle diameter.

A short description of data set [5]: Measurement of fluorescence spectrum, absorption spectrum, quantum yield and fluorescence lifetime. It is filed as physicochemical. How it is done:
In order to analyze the fluorescent properties of UnaG protein, the fluorescence spectrum, absorption spectrum, and quantum yield were measured. The excitation spectrum and the fluorescence spectrum were measured with a spectrophotofluorometer, RF-5300PC (Shimadzu Corporation), at an excitation wavelength of 475 nm and a fluorescence wavelength of 550 nm. The absorption spectrum was measured with a spectrophotometer, U-2900 (Hitachi High-Technologies Corporation). The quantum yield was measured with an absolute quantum yield measurement system, Quantaurus-QY (Hamamatsu Photonics K.K.) at excitation wavelengths of 470 nm and 480 nm. A known fluorescent protein, EGFP, was similarly measured, and the values were compared to those of UnaG protein.
In order to analyze the fluorescent properties of R82EK84E mutant, the fluorescence spectrum, absorption spectrum, and quantum yield were measured. The measurement was performed by the same method as that described in the above-described paragraph 3. The fluorescence lifetime was measured with a small-sized fluorescence lifetime measurement system, Quantaurus-Tau (Hamamatsu Photonics K.K.) and was compared to that of wild-type UnaG protein.
The fluorescence spectrum, absorption spectrum, and quantum yield (excitation wavelength: 470 nm) were measured for analyzing the fluorescent properties of holo A12ES80N mutant protein. The measurement was performed by the same method as that described in paragraph 3, above. The fluorescent properties were compared to those of wild-type UnaG protein.

The mark [6] stands for this setting: Table 3, wild-type vs R82EK84E mutant.
The mark [7] stands for this setting: Table 3, wild-type vs R82EK84E mutant, holo form reconstructed with bilirubin.
Setting [8] is: Table 4, wild-type vs holo A12ES80N mutant.

T1 sequence (P0DM59 whole entry): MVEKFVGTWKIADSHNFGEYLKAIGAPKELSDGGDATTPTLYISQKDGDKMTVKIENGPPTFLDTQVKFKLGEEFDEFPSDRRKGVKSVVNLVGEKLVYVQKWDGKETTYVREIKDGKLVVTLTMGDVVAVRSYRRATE

In general, Kd refers to the equilibrium constant for the complex coming apart. High values mean lower affinity, low ones higher affinity. Regarding `C=CC1=C(C)/C(=C/c2[nH]c(Cc3[nH]c(/C=C4\NC(=O)C(C)=C4C=C)c(C)c3CCC(=O)O)c(CCC(=O)O)c2C)NC1=O` [bilirubin], the “fluorescence emission of UnaG on addition of ligand” value in data set [1] is on record as “the fluorescence of UnaG is specific to bilirubin”. Besides, the Kd in data set [2] came to 98 pM; in data set [3], 1900 pM.

B1: R82EK84E mutant: UnaG with 82nd amino acid R and 84th amino acid K substituted by E; SEQ ID NO: 5 (protein, listed as Anguilla japonica)
chain: MVEKFVGTWKIADSHNFGEYLKAIGAPKELSDGGDATTPTLYISQKDGDKMTVKIENGPPTFLDTQVKFKLGEEFDEFPSDEREGVKSVVNLVGEKLVYVQKWDGKETTYVREIKDGKLVVTLTMGDVVAVRSYRRATE
Take B1: in data set [4], the “dispersibility / aggregation compared to the wild-type” value is “improved dispersibility”. The “particle diameter distribution (peaks)” value in data set [4] (wild-type 10 mg/mL, R82EK84E mutant 8.5 mg/mL) is “single peak”. Besides, in data set [5] (setting [6]), the Molar extinction coefficient is 50,870 M^−1 cm^−1 and the Quantum yield was determined as 61%. In data set [5] (setting [7]), this molecule came in with a Maximum excitation wavelength of 498 nm and a Maximum fluorescence wavelength of 527 nm. Moreover, the “Fluorescence lifetime (τ1/ns)” value in data set [5] (Table 3, wild-type vs R82EK84E mutant, Quantaurus-Tau) is given as 2.2 ns.

B2: A12ES80N mutant: UnaG variant with substitution of A at 12th position to E and S at 80th position to N; SEQ ID NO: 29 (protein, listed as Anguilla japonica)
chain: MVEKFVGTWKIEDSHNFGEYLKAIGAPKELSDGGDATTPTLYISQKDGDKMTVKIENGPPTFLDTQVKFKLGEEFDEFPNDRRKGVKSVVNLVGEKLVYVQKWDGKETTYVREIKDGKLVVTLTMGDVVAVRSYRRATE
With B2, in data set [5] (setting [8]), the Maximum excitation wavelength was determined as 499 nm, the Maximum fluorescence wavelength was found to be 527 nm and the Molar extinction coefficient was 56,210 M^−1 cm^−1. The Quantum yield in data set [5] (Table 4, excitation wavelength 470 nm) is 46.8%.

Source of the values: US9957308B2, “Method for detecting bilirubin using a fluorescent protein” (RIKEN, priority 2013, dated 2018).
